The labels stand for the following.
B1: Phage-2370 (peptide)
peptide: LEKWCIPSWMCSTL
notes: Peptide-180 library clone, tested as clonal phage supernatant
B2: Phage-2362 (peptide)
peptide: EEKMCKPSWMCQLF
notes: as for B1
B3: Phage-2359 (peptide)
peptide: AANWCTPPWMCLGF
notes: as for B1
B4: Phage-2371 (peptide)
peptide: VDKWCIPSWMCEFY
notes: as for B1
B5: Phage-2369 (peptide)
peptide: GLGWCTPTWMCEGF
notes: as for B1
B6: Phage-2360 (peptide)
peptide: EEKWCRPAWMCEHA
notes: as for B1
B7: Phage-2365 (peptide)
peptide: AEKLCKPAWMCNNM
notes: as for B1
B8: Phage-2372 (peptide)
peptide: QVQWCIPPWMCLED
notes: as for B1
B9: Phage-2361 (peptide)
peptide: ITPWCIPPWMCPGP
notes: as for B1
B10: Phage-2366 (peptide)
peptide: INKWCIPEWMCAAM
notes: as for B1
B11: Phage-2364 (peptide)
peptide: GANLCIPPWMCLSS
notes: as for B1
B12: Phage-2367 (peptide)
peptide: YEKWCIPAWMCHVA
notes: as for B1
B13: Phage-2363 (peptide)
peptide: AERWCIPDWMCNVI
notes: as for B1
B14: Phage-2368 (peptide)
peptide: DGVWCVPQWMCDGY
notes: as for B1
B15: Phage-2245 peptide (SEQ ID NO: 2561) (peptide)
peptide: SEKLCIPEWMCAQA
modifications: cysteine pairing not given here; also: displayed on bacteriophage as fusion to pIII
B16: Phage-2251 peptide (SEQ ID NO: 2567) (peptide)
peptide: GTNWCTPAWMCAGF
modifications: cysteine pairing not given here; also: displayed on bacteriophage as fusion to pIII
B17: Phage-2205 (peptide)
peptide: VDRLCTPEWMCSGF
notes: Clonal phage of the peptide-180 library, tested as crude phage supernatant; not shown: fused to pIII of the bacteriophage

Where no end group is shown, it is not given here.

The first experiment deals with T1, PSMA Fab.
T1 construct: also called Anti-PSMA Fab; 006 PSMA Fab
The experiment in a line: phage ELISA; biotinylated PSMA Fab on neutravidin plate pre-incubated with PSMA antigen as competitor, anti-M13 HRP detection.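 Note: crude clonal phage supernatants tested, compared against control wells pre-incubated with blocking buffer only, without PSMA antigen.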
Description: (§1) Clonal phage were harvested as crude supernatants and screened via standard ELISAs. […] Prior to the addition of clonal phage. wells were incubated with blocking buffer and PSMA antigen or blocking buffer alone. Without washing or aspirating, clonal phage supernatants were then added to the wells and incubated for a short time. Wells were then washed followed by detection of bound phage using a horse radish conjugated anti-M13 antibody.
With B1, the “Phage binding ELISA signal, Anti-PSMA Fab in the presence of PSMA antigen” value (“Phage binding ELISA signal … of PSMA antigen” for short) is 0.0829.
Still for that read-out and setting: the figure for B2 is 0.09; for B3 it is 0.0888; for B4 it is 0.0767.
On the same count and under the same terms, with B5 the figure was 0.0727; with B6, 0.0625; with B7, 0.0752.
The same measure, in the same setting: with B8 the figure was 0.0887; with B9, 0.0746.
As for B10, the “Phage binding ELISA signal … of PSMA antigen” value amounted to 0.0668.
For the molecule B11, the “Phage binding ELISA signal … of PSMA antigen” value came to 0.0789.
For B12, the “Phage binding ELISA signal … of PSMA antigen” value turned out to be 0.0747.
Still for that read-out and setting: with B13 the figure was 0.0567; with B14, 0.0722.

A further experiment concerns the target T2, Anti-PSMA Fab (SEQ ID NOs: 19, 20).
T2 construct: Biotinylated and captured on neutravidin-coated plates in the phage ELISA; also called 006 PSMA Fab
The experiment in a line: phage binding ELISA; PSMA Fab on plate pre-incubated with PSMA antigen as competitor, anti-M13 HRP detection.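 Note: crude clonal phage supernatants added without washing to wells preincubated with PSMA in blocking buffer, compared with wells receiving blocking buffer only, then bound phage detected.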 In general terms: In an ELISA, binding on a coated surface is turned into a signal by an enzyme label.
Description: as §1
With DFKWCIPTWMCEVY [Phage-2238 peptide (SEQ ID NO: 2554)], the “Anti-PSMA Fab signal in the presence of PSMA” value (“Anti-PSMA Fab signal” for short) stood at 0.0768.
On the same count and under the same terms, with HPNWCTPPWMCLGL [Phage-2239 peptide (SEQ ID NO: 2555)] the figure was 0.0699.
The same measure, in the same setting: the figure for IIKWCTPEWMCVGF [Phage-2249 peptide (SEQ ID NO: 2565)] is 0.0748; for LVKLCIPEWMCSEG [Phage-2244 peptide (SEQ ID NO: 2560)] it is 0.0711; for ADKWCIPEWMCQQD [Phage-2252 peptide (SEQ ID NO: 2568)] it is 0.0665.
Same read-out and setting: the figure for LMNWCIPPWMCSAQ [Phage-2242 peptide (SEQ ID NO: 2558)] is 0.0907; for B15 it is 0.0686; for VVKWCIPTWMCENS [Phage-2241 peptide (SEQ ID NO: 2557)] it is 0.0889.
For the molecule IDKWCIPAWMCEST [Phage-2250 peptide (SEQ ID NO: 2566)], the “Anti-PSMA Fab signal” value was 0.105.
The same measure, in the same setting: the figure for LENWCKPAWMCWGM [Phage-2248 peptide (SEQ ID NO: 2564)] is 0.0811; for LMKWCIPQWMCQLD [Phage-2243 peptide (SEQ ID NO: 2559)] it is 0.249.
Take GEIWCTPKWMCDGF [Phage-2246 peptide (SEQ ID NO: 2562)]: the “Anti-PSMA Fab signal” value turned out to be 0.0716.
On the same count and under the same terms, the figure for NIIRCTPAWMCDGF [Phage-2247 peptide (SEQ ID NO: 2563)] is 0.0619; for B16 it is 0.061.

The target of the next experiment is T1, PSMA Fab. The experiment in a line: phage ELISA; biotinylated PSMA Fab on neutravidin plate, clonal phage supernatant, anti-M13 HRP detection, blocking buffer alone.
Description: as §1
For B1, the “Phage binding ELISA signal, Anti-PSMA Fab” value came to 1.4.
On the same count and under the same terms, the figure for B2 is 1.41; for B3 it is 1.42; for B4 it is 1.4.
Same read-out and setting: the figure for B5 is 1.4; for B6 it is 1.42; for B7 it is 1.41.
The same measure, in the same setting: the figure for B8 is 1.4; for B9 it is 1.42.
As for B10, the “Phage binding ELISA signal, Anti-PSMA Fab” value came to 1.41.
Still for that read-out and setting: the figure for B11 is 1.41; for B12 it is 1.41; for B13 it is 1.41.
Same read-out and setting: with B14 the figure was 1.4.

A further experiment addresses T3, Anti-PSMA Fab (SEQ ID NOs: 19, 20).
T3 construct: Biotinylated and captured on neutravidin coated plates in the phage ELISA; also called 006 PSMA Fab
The experiment in a line: phage binding ELISA on captured Fab; competitor PSMA antigen pre-incubated in the wells.
Description: as §1
For B17, the “Anti-PSMA Fab signal” value was 0.0763.

Another experiment has as its target T4, PSMA Fab.
T4 construct: also called Anti-PSMA Fab; 006 PSMA Fab
The experiment in a line: clonal phage ELISA; biotinylated PSMA Fab on neutravidin plate; anti-M13-HRP detection; no PSMA antigen.
Description: as §1
For TQMWCIPFWMCEVQ [Phage-2459], the “Phage binding ELISA signal, Anti-PSMA Fab” value was 1.27.
As for WDHLCKPRWMCDGI (cysteine pairing not given here; also: displayed as fusion to phage pIII) [Phage-2451], the “Phage binding ELISA signal, Anti-PSMA Fab” value came to 1.28.
Still for that read-out and setting: with VEILCKPAWMCRLD [Phage-2457] the figure was 1.27; with DTNWCRPAWMCAFA (cysteine pairing not given here; also: displayed as fusion to phage pIII) [Phage-2458], 1.27; with EMKWCTPPWMCTEL [Phage-2460], 1.26.
The same measure, in the same setting: with SVKMCIPEWMCENI [Phage-2452] the figure was 1.28; with VETWCIPHWMCAGF (cysteine pairing not given here; also: displayed as fusion to phage pIII) [Phage-2453], 1.27; with SVHECRPLWMCQGF [Phage-2455], 1.27.
Still for that read-out and setting: the figure for GEKWCIPSWMCVAV [Phage-2456] is 1.27.

In a further experiment the target is T4, PSMA Fab. The experiment in a line: clonal phage ELISA; biotinylated PSMA Fab on neutravidin plate; wells pre-incubated with PSMA antigen as competitor; anti-M13-HRP detection.
Description: as §1
TQMWCIPFWMCEVQ [Phage-2459]: the “Phage binding ELISA signal, Anti-PSMA Fab with PSMA antigen” value is 0.0885.
Same read-out and setting: with WDHLCKPRWMCDGI (cysteine pairing not given here; also: displayed as fusion to phage pIII) [Phage-2451] the figure was 0.0744; with VEILCKPAWMCRLD [Phage-2457], 0.062.
The same measure, in the same setting: with DTNWCRPAWMCAFA (cysteine pairing not given here; also: displayed as fusion to phage pIII) [Phage-2458] the figure was 0.0649; with EMKWCTPPWMCTEL [Phage-2460], 0.0656.
The same measure, in the same setting: with SVKMCIPEWMCENI [Phage-2452] the figure was 0.0646.
Take VETWCIPHWMCAGF (cysteine pairing not given here; also: displayed as fusion to phage pIII) [Phage-2453]: the “Phage binding ELISA signal, Anti-PSMA Fab with PSMA antigen” value turned out to be 0.0685.
The same measure, in the same setting: the figure for SVHECRPLWMCQGF [Phage-2455] is 0.073; for GEKWCIPSWMCVAV [Phage-2456] it is 0.0549.

A further experiment addresses T3, Anti-PSMA Fab (SEQ ID NOs: 19, 20). The experiment in a line: phage binding ELISA; biotinylated Fab on neutravidin plate, anti-M13 HRP detection.
Description: as §1
Turning to B17, the “Anti-PSMA Fab (SEQ ID NOs: 19, 20) signal” value is 1.61.

For a further experiment, the target named is T2, Anti-PSMA Fab (SEQ ID NOs: 19, 20). The experiment in a line: phage binding ELISA; biotinylated PSMA Fab on neutravidin plate, clonal phage supernatant, anti-M13 HRP detection.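 Note: wells were preincubated with blocking buffer either containing PSMA antigen or without it before crude phage supernatant was added, briefly incubated, then washed prior to detection.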
Description: as §1
Turning to DFKWCIPTWMCEVY [Phage-2238 peptide (SEQ ID NO: 2554)], the “Anti-PSMA Fab (SEQ ID NOs: 19, 20) signal” value was found to be 1.56.
Still for that read-out and setting: with HPNWCTPPWMCLGL [Phage-2239 peptide (SEQ ID NO: 2555)] the figure was 1.56; with IIKWCTPEWMCVGF [Phage-2249 peptide (SEQ ID NO: 2565)], 1.55; with LVKLCIPEWMCSEG [Phage-2244 peptide (SEQ ID NO: 2560)], 1.56.
For ADKWCIPEWMCQQD [Phage-2252 peptide (SEQ ID NO: 2568)], the “Anti-PSMA Fab (SEQ ID NOs: 19, 20) signal” value was 1.55.
Still for that read-out and setting: the figure for LMNWCIPPWMCSAQ [Phage-2242 peptide (SEQ ID NO: 2558)] is 1.56.
On the same count and under the same terms, the figure for B15 is 1.56; for VVKWCIPTWMCENS [Phage-2241 peptide (SEQ ID NO: 2557)] it is 1.56.
Regarding IDKWCIPAWMCEST [Phage-2250 peptide (SEQ ID NO: 2566)], the “Anti-PSMA Fab (SEQ ID NOs: 19, 20) signal” value was 1.55.
Take LENWCKPAWMCWGM [Phage-2248 peptide (SEQ ID NO: 2564)]: the “Anti-PSMA Fab (SEQ ID NOs: 19, 20) signal” value stood at 1.55.
Still for that read-out and setting: the figure for LMKWCIPQWMCQLD [Phage-2243 peptide (SEQ ID NO: 2559)] is 1.56.
Regarding GEIWCTPKWMCDGF [Phage-2246 peptide (SEQ ID NO: 2562)], the “Anti-PSMA Fab (SEQ ID NOs: 19, 20) signal” value is 1.55.
On the same count and under the same terms, with NIIRCTPAWMCDGF [Phage-2247 peptide (SEQ ID NO: 2563)] the figure was 1.55.
The same measure, in the same setting: the figure for B16 is 1.55.
